In article PMC4949953:
pKd: −log10 of the molar value.

Target: computationally redesigned, water-soluble variant of the human μ-opioid receptor (MOR) (human) (UniProt P35372)
Assay: MoS2 field effect transistor biosensor

pKd: 7.06
Substance: [D-Ala^2, N-MePhe^4, Gly-ol]-enkephalin (peptide)
